# Positions of bridges follow the written chain, without caps; N, C: chain ends. Non-standard residues stand in square brackets, D forms with d. 2Nal = N[C@@H](Cc1ccc2ccccc2c1)C(=O)O; Aad = N[C@@H](CCCC(=O)O)C(=O)O; Orn = NCCC[C@H](N)C(=O)O; Dab = NCC[C@H](N)C(=O)O
# B1: Peptide No. 73 (peptide)
# peptide: RDRFRWK
# modifications: N-terminal Ac; D-Phe 4; cyclo(Asp 2-Lys 7); C-terminal OH
# notes: also called Ac-Arg-cyclo(Asp-Arg-D-Phe-Arg-Trp-Lys)-OH
# B2: Peptide No. 28 (peptide)
# peptide: RDRFRWK
# modifications: N-terminal Ac; D-Phe 4; cyclo(Asp 2-Lys 7); C-terminal NH2
# notes: also called Ac-Arg-cyclo(Asp-Arg-D-Phe-Arg-Trp-Lys)-NH2
# B3: Peptide No. 165 (peptide)
# peptide: Ac-RE[Dab][dF]RW[Orn]-NH2
# modifications: lactam 2-7
# notes: also called Ac-Arg-cyclo(Glu-Dab-D-Phe-Arg-Trp-Orn)-NH2
# B4: Peptide No. 159 (peptide)
# peptide: RXQFRWX
# modifications: N-terminal Ac; Dab 2 (X); D-Phe 4; hGlu 7 (X); cyclo(Dab 2-hGlu 7); C-terminal NH2
# notes: also called Ac-Arg-cyclo(Dab-Gln-D-Phe-Arg-Trp-hGlu)-NH2
# B5: Peptide No. 162 (peptide)
# peptide: Ac-RKN[dF]R[2Nal]D-NH2
# modifications: lactam 2-7
# SMILES: CC(=O)N[C@@H](CCCNC(=N)N)C(=O)N[C@H]1CCCCNC(=O)C[C@@H](C(N)=O)NC(=O)[C@H](Cc2ccc3ccccc3c2)NC(=O)[C@H](CCCNC(=N)N)NC(=O)[C@@H](Cc2ccccc2)NC(=O)[C@H](CC(N)=O)NC1=O
# notes: also called Ac-Arg-cyclo(Lys-Asn-D-Phe-Arg-Nal2-Asp)-NH2
# B6: Peptide No. 161 (peptide)
# peptide: Ac-REN[dF]RW[Orn]-NH2
# modifications: lactam 2-7
# notes: also called Ac-Arg-cyclo(Glu-Asn-D-Phe-Arg-Trp-Orn)-NH2
# B7: Peptide No. 155 (peptide)
# peptide: Ac-RKN[dF]RWD-NH2
# modifications: lactam 2-7
# notes: also called Ac-Arg-cyclo(Lys-Asn-D-Phe-Arg-Trp-Asp)-NH2
# B8: Peptide No. 160 (peptide)
# peptide: Ac-R[Aad]N[dF]RW[Dab]-NH2
# modifications: lactam 2-7
# notes: also called Ac-Arg-cyclo(hGlu-Asn-D-Phe-Arg-Trp-Dab)-NH2
# Molecular target: T1, human melanocortin receptor-4 (human, UniProt P32245 1-332)
# T1 construct: whole, on cells; cAMP assays on whole cells; also called hMC4r; MC4r
# Test: competition with Eu-NDP-α-MSH, hMC4r HEK-293 membranes
# Experimental: After incubation for 90 minutes at 37° C., the reaction was stopped by filtration over AcroWell 96-well filter plates (Pall Life Sciences). The filter plates were washed 4 times with 200 μL of ice-cold phosphate-buffered saline. DELFIA Enhancement solution (PerkinElmer Life Sciences) was added to each well. The plates were incubated on a shaker for 15 minutes and read at 340 nm excitation and 615 nm emission wavelengths. Each assay was conducted in duplicate and mean values were utilized. Ki values were determined by curve-fitting with Graph-Pad Prism® software using a one-site fixed-slope competition binding model.
# T1 sequence (P32245 whole entry): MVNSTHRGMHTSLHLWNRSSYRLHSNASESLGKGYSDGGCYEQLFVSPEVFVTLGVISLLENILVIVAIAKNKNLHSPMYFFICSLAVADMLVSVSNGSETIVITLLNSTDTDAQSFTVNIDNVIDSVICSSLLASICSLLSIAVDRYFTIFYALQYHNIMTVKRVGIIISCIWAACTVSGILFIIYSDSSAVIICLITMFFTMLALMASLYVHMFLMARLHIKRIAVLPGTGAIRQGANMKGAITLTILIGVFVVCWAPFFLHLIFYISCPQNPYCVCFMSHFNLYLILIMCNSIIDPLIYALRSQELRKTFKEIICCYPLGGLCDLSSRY
row,Ki [nM],Binder
1,60,B1
2,4,B2

# Molecular target: T1, human melanocortin receptor-4
# Test: competition with [I125]-NDP-α-MSH, hMC4r HEK-293 membranes
row,Ki [nM],Binder
1,0.65,B3

# Molecular target: T1, human melanocortin receptor-4
# Test: ratio of Ki at hMC1r to Ki at hMC4r
row,"binding selectivity, MC4r against MC1r [fold]",Binder
1,20,B4
2,20,B5
3,20,B6
4,20,B7

# Molecular target: T1, human melanocortin receptor-4
# Test: cell-based or functional assay
row,"intrinsic activity (cAMP, NDP-α-MSH is 100%) [%]",Binder
1,101,Ac-R[Aad]H[dF]RW[Dab]-NH2 (lactam 2-7) [Peptide No. 126]
2,42,Ac-RDV[dF]RWK-NH2 (lactam 2-7) [Peptide No. 16]
3,95,Ac-R[Dab]H[dF]RW[Aad]-NH2 (lactam 2-7) [Peptide No. 128]
4,91,Ac-RDH[dF]RWK-NH2 (lactam 2-7) [Peptide No. 1]
5,98,Ac-RDQ[dF]RWK-NH2 (lactam 2-7) [Peptide No. 32]

# Molecular target: human melanocortin receptor-1 (human, UniProt Q01726 1-317)
# Test: cell-based or functional assay
# Sequence of human melanocortin receptor-1 (Q01726 whole entry): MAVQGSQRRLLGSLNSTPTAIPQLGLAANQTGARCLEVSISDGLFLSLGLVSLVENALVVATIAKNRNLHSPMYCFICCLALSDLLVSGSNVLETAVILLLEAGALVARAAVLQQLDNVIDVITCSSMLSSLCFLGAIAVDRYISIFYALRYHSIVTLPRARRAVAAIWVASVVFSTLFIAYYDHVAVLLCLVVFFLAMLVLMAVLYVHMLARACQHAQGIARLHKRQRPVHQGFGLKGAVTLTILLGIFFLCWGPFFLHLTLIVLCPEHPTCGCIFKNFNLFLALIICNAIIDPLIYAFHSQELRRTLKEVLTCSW
hMC1r EC50 [nM],hMC1r Emax [%],Binder
26,98,B4
–,88,Ac-[dR]DQ[dF]RWK-NH2 (lactam 2-7) [Peptide No. 71]
22,89,B5
–,89,Ac-R[Orn]Q[dF]RWE-NH2 (lactam 2-7) [Peptide No. 150]
13,85,B6
14,91,B7
–,85,Ac-[dR][Orn]Q[dF]RWE-NH2 (lactam 2-7) [Peptide No. 152]
80,81,Ac-[dR][Orn]N[dF]RWE-NH2 (lactam 2-7) [Peptide No. 156]
25,–,Ac-R[Orn]N[dF]RWE-NH2 (lactam 2-7) [Peptide No. 154]

# Molecular target: T1, human melanocortin receptor-4
# Test: cell-based or functional assay
# Remark: another data set of the same source
hMC4r EC50 [nM],hMC4r Emax [%],Binder
0.825,99,B4
0.245,98,B8
–,89,Ac-[dR]DQ[dF]RWK-NH2 (lactam 2-7) [Peptide No. 71]
0.85,82,B5
0.413,91,B6
0.189,97,B7
–,89,Ac-[dR][Orn]Q[dF]RWE-NH2 (lactam 2-7) [Peptide No. 152]
